Series [1] concerns Saccharomyces cerevisiae. Description: protein stability index of tFT-peptide fusion in wild type (PSI (0-1 scale)); higher = more stable (slower turnover). The note with it: genetic background: wild type.
Series [2] deals with Saccharomyces cerevisiae. Description: protein stability index of tFT-peptide fusion in deletion strain of DOA10 (PSI (0-1 scale)); higher = more stable (slower turnover). On the procedure:
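MPS profiling in S. cerevisiae of two library types built from selected 12-aa C-degron peptides (IN1, IN2, LN1, LN3, VN2, R1-R5, W1-W3, Atg1 and Rpa12 C-termini): saturation mutagenesis libraries and C-terminal +1 capping libraries (13 aa). Each peptide is fused to the C-terminus of a sfGFP-mCherry timer, after a GGGS linker. Cells are FACS-sorted into 8 mCherry/sfGFP bins and sequenced. PSI runs from 0 (unstable) to 1 (stable), measured once in wild type and in the das1Δ or doa10Δ background.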

Series [3] has as its system Saccharomyces cerevisiae. Description: protein stability index of tFT-peptide fusion (C-terminal peptide) (PSI (0-1 scale)); higher = more stable (slower turnover). On the procedure:
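MPS profiling in S. cerevisiae of the tFT-X12 degron library: putative degron peptides plus stable controls, 12 aa, fused to the C-terminus of a sfGFP-mCherry timer. Cells are FACS-sorted into 8 mCherry/sfGFP bins and deep-sequenced. PSI runs from 0 (unstable) to 1 (stable). Backgrounds are wild type, das1Δ and doa10Δ at 30 °C, and wild type, das1Δ, cdc34-1 and cdc53-1 at 37 °C; 2-3 technical replicates each.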

The test system of series [4] is Saccharomyces cerevisiae. Description: protein stability index of tFT-peptide fusion in deletion strain of DAS1 (PSI (0-1 scale)); higher = more stable (slower turnover).

± gives the standard deviation of the averaged measurements.
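Wherever protein stability index of tFT-peptide fusion (C-terminal peptide) is given: PSI is a weighted mean of sequencing reads over stability bins, variants kept only with over 10 reads, mCherry proximal and sfGFP distal, peptide attached via GGGS linker.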
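Wherever protein stability index of tFT-peptide fusion in deletion strain of DAS1 is given: PSI is a weighted mean of each variant's read distribution over the sorted stability bins, computed only for variants having over 10 reads in total.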
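Wherever protein stability index of tFT-peptide fusion in deletion strain of DOA10 is given: PSI per variant is the weighted mean of its sequencing read distribution over the sorted stability bins, counting only variants with over 10 reads summed across bins.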
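Wherever protein stability index of tFT-peptide fusion in wild type is given: PSI derived as read-weighted mean over the 8 sorting bins, only variants exceeding 10 total reads kept, mCherry placed adjacent to the peptide and sfGFP distal.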

On to AFTLPMCPLLLR, for which the figures for the protein stability index with Saccharomyces cerevisiae [1] and in the series on Saccharomyces cerevisiae [2] were 0.171 and 0.653, respectively.

For the sequence AICLPMCPLLLR, the protein stability index in the series on Saccharomyces cerevisiae [1] came to 0.224; in the series on Saccharomyces cerevisiae [2] it was 0.632.

Take AILLPMCPLLLR: the results for the protein stability index in the series on Saccharomyces cerevisiae [1] and in the series with Saccharomyces cerevisiae [2] were 0.281 and 0.612, respectively.

Consider AITLPMCALLLR, for which the protein stability index with Saccharomyces cerevisiae [1] stood at 0.149; in the series on Saccharomyces cerevisiae [2], 0.638.

With AITLPMCPLLKR, the values for the protein stability index in the series on Saccharomyces cerevisiae [1] and in the series with Saccharomyces cerevisiae [2] were 0.645 and 0.676, respectively.

On to AITLPMCPLLLI, for which the protein stability index came to 0.493 with Saccharomyces cerevisiae [1] and 0.596 in the series with Saccharomyces cerevisiae [2].

On to AITLPMCPLLLRD, for which the protein stability index in the series on Saccharomyces cerevisiae [1] was 0.422; in the series on Saccharomyces cerevisiae [2], 0.65.

Regarding AITLPMCPLLLV, the protein stability index came to 0.349 with Saccharomyces cerevisiae [1] and 0.417 in the series on Saccharomyces cerevisiae [2].

For the sequence AITLPMCPLLVR, the protein stability index in the series on Saccharomyces cerevisiae [1] came out at 0.181; with Saccharomyces cerevisiae [2], 0.231.

For the sequence AITLPMCPLTLR, the protein stability index is 0.363 in the series with Saccharomyces cerevisiae [1] and 0.672 with Saccharomyces cerevisiae [2].

With AITLPMCQLLLR, the protein stability index with Saccharomyces cerevisiae [1] stood at 0.174; in the series with Saccharomyces cerevisiae [2] it was 0.663.

Consider AITLPMEPLLLR, for which the figures for the protein stability index with Saccharomyces cerevisiae [1] and in the series on Saccharomyces cerevisiae [2] were 0.441 and 0.67, respectively.

AITLPMVPLLLR: the protein stability index worked out at 0.153 in the series on Saccharomyces cerevisiae [1] and 0.622 in the series on Saccharomyces cerevisiae [2].

Turning to AITLPNCPLLLR, the protein stability index in the series with Saccharomyces cerevisiae [1] was determined as 0.337; in the series with Saccharomyces cerevisiae [2], 0.682.

On to AITLPSCPLLLR, for which the figures for the protein stability index in the series on Saccharomyces cerevisiae [1] and in the series with Saccharomyces cerevisiae [2] were 0.304 and 0.669, respectively.

AITVPMCPLLLR: the values for the protein stability index with Saccharomyces cerevisiae [1] and in the series with Saccharomyces cerevisiae [2] were 0.299 and 0.656, respectively.

For the sequence ARWGVGLWRGAS, the protein stability index with Saccharomyces cerevisiae [1] was 0.372; in the series on Saccharomyces cerevisiae [3] (genetic background: cdc34-1, temperature: 37 C) it was 0.664 ± 0.02; in the series on Saccharomyces cerevisiae [3] (genetic background: cdc53-1, temperature: 37 C) it was 0.756 ± 0.0077; in the series with Saccharomyces cerevisiae [3] (genetic background: das1 deletion, temperature: 30 C) it was 0.6508 ± 0.0062; with Saccharomyces cerevisiae [3] (genetic background: das1 deletion, temperature: 37 C), 0.76494 ± 7.7e-05; in the series on Saccharomyces cerevisiae [3] (genetic background: doa10 deletion, temperature: 30 C), 0.282 ± 0.018. Moreover, the protein stability index with Saccharomyces cerevisiae [3] (genetic background: wild type, temperature: 30 C) was found to be 0.299 ± 0.029; with Saccharomyces cerevisiae [3] (genetic background: wild type, temperature: 37 C), 0.618 ± 0.012; in the series on Saccharomyces cerevisiae [4], 0.685.

As for CKVSLPILLFFR, the protein stability index in the series with Saccharomyces cerevisiae [1] was 0.0542; in the series on Saccharomyces cerevisiae [2], 0.621.

CLASLPILLFFR: the protein stability index worked out at 0.0826 with Saccharomyces cerevisiae [1] and 0.626 with Saccharomyces cerevisiae [2].

As for CLHSLPILLFFR, the protein stability index in the series with Saccharomyces cerevisiae [1] was 0.0715; in the series with Saccharomyces cerevisiae [2], 0.626.

Take CLVRLPILLFFR: the protein stability index stood at 0.0563 with Saccharomyces cerevisiae [1] and 0.595 in the series on Saccharomyces cerevisiae [2].

CLVSAPILLFFR: the protein stability index in the series on Saccharomyces cerevisiae [1] worked out at 0.11; in the series with Saccharomyces cerevisiae [2] it was 0.639.

For the sequence CLVSCPILLFFR, the protein stability index is 0.0926 in the series with Saccharomyces cerevisiae [1] and 0.578 in the series with Saccharomyces cerevisiae [2].

In the case of CLVSGPILLFFR, the protein stability index in the series on Saccharomyces cerevisiae [1] stood at 0.217; with Saccharomyces cerevisiae [2], 0.631.

Take RLIQPLPFQFLN: the results for the protein stability index in the series on Saccharomyces cerevisiae [1] and in the series with Saccharomyces cerevisiae [4] were 0.0405 and 0.624, respectively.

Turning to RLIQPLPLQFLN, the protein stability index was found to be 0.0437 with Saccharomyces cerevisiae [1] and 0.619 with Saccharomyces cerevisiae [4].

As for RLIQPLPVLFLN, the protein stability index turned out to be 0.0545 with Saccharomyces cerevisiae [1] and 0.542 in the series with Saccharomyces cerevisiae [4].

In the case of RLIQPLPVQFDN, the protein stability index was 0.668 with Saccharomyces cerevisiae [1] and 0.624 in the series on Saccharomyces cerevisiae [4].

Consider RLIQPLPVQFLI, for which the values for the protein stability index with Saccharomyces cerevisiae [1] and in the series on Saccharomyces cerevisiae [4] were 0.0642 and 0.537, respectively.

With RLIQPLPVQFLP, the protein stability index in the series on Saccharomyces cerevisiae [1] came out at 0.62; with Saccharomyces cerevisiae [4], 0.57.

Regarding RLIQPLPVQFMN, the protein stability index in the series with Saccharomyces cerevisiae [1] stood at 0.0175; in the series with Saccharomyces cerevisiae [4] it was 0.614.

Take RLIQPLPVQFRN: the protein stability index with Saccharomyces cerevisiae [1] was 0.533; with Saccharomyces cerevisiae [4] it was 0.609.

With RLIQPLPVQFVN, the protein stability index was 0.0426 in the series with Saccharomyces cerevisiae [1] and 0.598 in the series with Saccharomyces cerevisiae [4].

As for RLIQPLPVQFWN, the protein stability index in the series with Saccharomyces cerevisiae [1] was 0.132; in the series on Saccharomyces cerevisiae [4], 0.618.

Take RLIQPLPVVFLN: the protein stability index worked out at 0.047 in the series on Saccharomyces cerevisiae [1] and 0.565 with Saccharomyces cerevisiae [4].

On to RLIQPLPVWFLN, for which the protein stability index in the series on Saccharomyces cerevisiae [1] is 0.0563; in the series on Saccharomyces cerevisiae [4], 0.609.

As for RLIQPLSVQFLN, the values for the protein stability index in the series with Saccharomyces cerevisiae [1] and with Saccharomyces cerevisiae [4] were 0.0547 and 0.594, respectively.

In the case of RLIQPLTVQFLN, the protein stability index in the series with Saccharomyces cerevisiae [1] came to 0.065; in the series with Saccharomyces cerevisiae [4], 0.608.

As to RLIQTLPVQFLN, the results for the protein stability index with Saccharomyces cerevisiae [1] and with Saccharomyces cerevisiae [4] were 0.0873 and 0.594, respectively.

For the sequence RLKQPLPVQFLN, the values for the protein stability index in the series on Saccharomyces cerevisiae [1] and with Saccharomyces cerevisiae [4] were 0.181 and 0.559, respectively.

Take RNIQPLPVQFLN: the protein stability index in the series on Saccharomyces cerevisiae [1] was determined as 0.0759; in the series on Saccharomyces cerevisiae [4], 0.61.

As to RPIQPLPVQFLN, the protein stability index was found to be 0.0515 with Saccharomyces cerevisiae [1] and 0.593 with Saccharomyces cerevisiae [4].

RRWRVGLWRGAS: the figures for the protein stability index with Saccharomyces cerevisiae [1] and with Saccharomyces cerevisiae [4] were 0.389 and 0.684, respectively.

For RVIQPLPVQFLN, the protein stability index is 0.0531 in the series on Saccharomyces cerevisiae [1] and 0.576 with Saccharomyces cerevisiae [4].

Take RWIQPLPVQFLN: the values for the protein stability index in the series on Saccharomyces cerevisiae [1] and in the series on Saccharomyces cerevisiae [4] were 0.0536 and 0.686, respectively.

As to SSMRWTFRYWVN, the values for the protein stability index in the series with Saccharomyces cerevisiae [1] and in the series with Saccharomyces cerevisiae [4] were 0.113 and 0.608, respectively.

Take TRWRVGLWRGAS: the results for the protein stability index in the series on Saccharomyces cerevisiae [1] and in the series on Saccharomyces cerevisiae [4] were 0.394 and 0.602, respectively.

As to TTSCGYKFRTNN, the figures for the protein stability index in the series with Saccharomyces cerevisiae [1] and in the series with Saccharomyces cerevisiae [4] were 0.255 and 0.677, respectively.

With VDGAVGGWRLVG, the protein stability index with Saccharomyces cerevisiae [1] came to 0.155; with Saccharomyces cerevisiae [4] it was 0.685.

Turning to VRCAVGGWRLVG, the figures for the protein stability index with Saccharomyces cerevisiae [1] and with Saccharomyces cerevisiae [4] were 0.126 and 0.716, respectively.

Regarding VRGAVGGARLVG, the results for the protein stability index in the series with Saccharomyces cerevisiae [1] and in the series on Saccharomyces cerevisiae [4] were 0.618 and 0.673, respectively.

In the case of VRGAVGGKRLVG, the protein stability index with Saccharomyces cerevisiae [1] came to 0.649; in the series on Saccharomyces cerevisiae [4], 0.677.

For the sequence VRGAVGGWALVG, the protein stability index in the series on Saccharomyces cerevisiae [1] was determined as 0.438; with Saccharomyces cerevisiae [4] it was 0.667.

Consider VRGAVGGWRLCG, for which the protein stability index in the series with Saccharomyces cerevisiae [1] was 0.239; in the series on Saccharomyces cerevisiae [4] it was 0.676.

As to VRGAVGGWRLMG, the values for the protein stability index in the series on Saccharomyces cerevisiae [1] and with Saccharomyces cerevisiae [4] were 0.177 and 0.66, respectively.

For the sequence VRGAVGGWRLVGE, the protein stability index was 0.612 in the series with Saccharomyces cerevisiae [1] and 0.66 with Saccharomyces cerevisiae [4].

Consider VRGAVGGWRLVN, for which the protein stability index with Saccharomyces cerevisiae [1] stood at 0.157; in the series with Saccharomyces cerevisiae [4], 0.673.

In the case of VRGAVGGWRLVQ, the results for the protein stability index in the series on Saccharomyces cerevisiae [1] and in the series with Saccharomyces cerevisiae [4] were 0.24 and 0.684, respectively.

Consider VRGAVGGWRLWG, for which the protein stability index was determined as 0.534 with Saccharomyces cerevisiae [1] and 0.717 in the series on Saccharomyces cerevisiae [4].

Regarding VRGAVGGWRYVG, the protein stability index worked out at 0.157 with Saccharomyces cerevisiae [1] and 0.686 in the series on Saccharomyces cerevisiae [4].

As for VRGAVGHWRLVG, the protein stability index in the series with Saccharomyces cerevisiae [1] is 0.157; in the series on Saccharomyces cerevisiae [4] it was 0.678.

Take VRGAVIGWRLVG: the protein stability index with Saccharomyces cerevisiae [1] came to 0.146; in the series with Saccharomyces cerevisiae [4] it was 0.68.

VRGAWGGWRLVG: the protein stability index in the series on Saccharomyces cerevisiae [1] was found to be 0.147; in the series with Saccharomyces cerevisiae [4] it was 0.692.

For the sequence VRPAVGGWRLVG, the figures for the protein stability index in the series on Saccharomyces cerevisiae [1] and in the series with Saccharomyces cerevisiae [4] were 0.106 and 0.68, respectively.

As to WSLAASFWRVVG, the protein stability index in the series on Saccharomyces cerevisiae [1] came to 0.116; in the series on Saccharomyces cerevisiae [4], 0.668.

Turning to YKHKKGQKQKIN, the protein stability index in the series on Saccharomyces cerevisiae [1] turned out to be 0.176; with Saccharomyces cerevisiae [4], 0.607.

For YRWRVGLWRGAS, the protein stability index in the series with Saccharomyces cerevisiae [1] worked out at 0.223; in the series on Saccharomyces cerevisiae [4], 0.66.

Source of the values: the supplement of paper PMC10724198.
